Test results reported in PMC3462001.

Biological target: Gab1 (UniProt Q9QYY0)
Experiment: co-immunoprecipitation, immunoblot
Settings: reference: wild-type PAR3 with PAR1b; sites S144,S873

Substance: PAR3 (from UniProt Q8TEW0) PAR3 S144A/S873A with PAR1b
- binding against the reference: stronger
